In publication PMC9132681 (Biochimie, 2022):

B1: C-terminal domain of human Hsp90 (residues 566-732) (domain or fragment)
chain: not shown
B2: cytosolic fragment of human TOM70 (residues 111-608), His-tagged (domain or fragment)
chain: LDRAQAAKNKGNKYFKAGKYEQAIQCYTEAISLCPTEKNVDLSTFYQNRAAAFEQLQKWKEVAQDCTKAVELNPKYVKALFRRAKAHEKLDNKKECLEDVTAVCILEGFQNQQSMLLADKVLKLLGKEKAKEKYKNREPLMPSPQFIKSYFSSFTDDIISQPMLKGEKSDEDKDKEGEALEVKENSGYLKAKQYMEEENYDKIISECSKEIDAEGKYMAEALLLRATFYLLIGNANAAKPDLDKVISLKEANVKLRANALIKRGSMYMQQQQPLLSTQDFNMAADIDPQNADVYHHRGQLKILLDQVEEAVADFDECIRLRPESALAQAQKCFALYRQAYTGNNSSQIQAAMKGFEEVIKKFPRCAEGYALYAQALTDQQQFGKADEMYDKCIDLEPDNATTYVHKGLLQLQWKQDLDRGLELISKAIEIDNKCDFAYETMGTIEVQRGNMEKAIDMFNKAINLAKSEMEMAHLYSLCDAAHAQTEVAKKYGLKPPTL

Legend:
[1] = molecular target: B2; assay: SEC-MALS
full-length human Hsp90 = full-length human Hsp90 (human, UniProt P07900 1-732); assay: pull-down

Binder: B1
- stoichiometry N [1]: 2 C-Hsp90 per TOM70

Binder: B2
- binding result (full-length human Hsp90): binds
